Data on 1 molecule can be found in CN113621064A (FUZHOU MAIXIN BIOTECHNOLOGY DEV CO LTD, dated 2021).

The experiment deals with T1, CD117蛋白 (c-kit, 干细胞因子受体) (human, UniProt P10721 26-976).
T1 construct: whole, on cells; Endogenous antigen in tissue sections (immunohistochemistry); The abstract names it as human; also called 人CD117抗原
The experiment is described as follows: immunohistochemistry on a tissue array of 28 gastrointestinal stromal tumours.

T1 sequence (P10721 26-976): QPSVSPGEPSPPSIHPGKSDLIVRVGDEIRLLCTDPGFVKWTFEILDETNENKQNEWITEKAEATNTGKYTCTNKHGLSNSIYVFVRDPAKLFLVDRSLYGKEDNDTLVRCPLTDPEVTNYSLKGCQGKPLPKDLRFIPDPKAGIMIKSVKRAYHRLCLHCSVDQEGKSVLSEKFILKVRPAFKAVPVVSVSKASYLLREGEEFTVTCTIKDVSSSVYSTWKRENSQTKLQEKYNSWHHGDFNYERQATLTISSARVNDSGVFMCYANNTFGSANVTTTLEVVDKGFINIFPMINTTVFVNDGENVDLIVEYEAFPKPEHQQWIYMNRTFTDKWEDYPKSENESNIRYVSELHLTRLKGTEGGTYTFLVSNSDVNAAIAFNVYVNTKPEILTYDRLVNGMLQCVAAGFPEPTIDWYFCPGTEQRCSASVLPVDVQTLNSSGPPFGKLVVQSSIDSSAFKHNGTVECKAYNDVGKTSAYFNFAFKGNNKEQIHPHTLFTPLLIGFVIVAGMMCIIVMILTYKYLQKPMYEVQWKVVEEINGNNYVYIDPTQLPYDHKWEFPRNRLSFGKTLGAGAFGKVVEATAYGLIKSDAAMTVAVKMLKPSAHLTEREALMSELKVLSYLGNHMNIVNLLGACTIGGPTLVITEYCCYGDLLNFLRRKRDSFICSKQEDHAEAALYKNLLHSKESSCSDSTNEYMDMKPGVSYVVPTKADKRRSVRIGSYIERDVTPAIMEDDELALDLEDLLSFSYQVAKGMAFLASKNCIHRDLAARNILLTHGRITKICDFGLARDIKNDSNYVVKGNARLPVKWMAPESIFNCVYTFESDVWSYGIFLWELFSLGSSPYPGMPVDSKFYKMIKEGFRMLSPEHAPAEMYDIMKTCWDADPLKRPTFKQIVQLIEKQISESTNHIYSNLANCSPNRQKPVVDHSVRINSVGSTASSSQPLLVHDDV

B1: 抗CD117蛋白单克隆抗体 (小鼠杂交瘤细胞株33G5分泌, CGMCC NO 21977) (antibody, V domains shown)
VH: EVKLQESGPSLVQPGGSMRLSCVASGFIFSNYWINWVRQSPEMGLEWIAQVKLKSDNYATHYAGSVKGRFTISRDDSKSSVYLQMNNLRPEDTGIYFCLGRLDVWGAGTTVTVSS
VL: DIMLTQSPLSLSVTIGQPASISCKSSQSLLYTDGKTYLNWLLQRPGQSPKLLIYLVSKLDSGVPDRFSGSGSGTDFTLKISRVEAEDLGVYYCLQATHFPQTFGGGTKLEIK
notes: also called CD117(33G5); 33G5分泌的CD117抗体
As for B1, the binding result is “binds”.
